From patent US20030082746

Key:
[1] = target: T1, pro-transglutaminase of S. mobaraense, Asp-Asn-Gly-Ala-Gly-Glu deletion type of the pro-structure part
T1 chain: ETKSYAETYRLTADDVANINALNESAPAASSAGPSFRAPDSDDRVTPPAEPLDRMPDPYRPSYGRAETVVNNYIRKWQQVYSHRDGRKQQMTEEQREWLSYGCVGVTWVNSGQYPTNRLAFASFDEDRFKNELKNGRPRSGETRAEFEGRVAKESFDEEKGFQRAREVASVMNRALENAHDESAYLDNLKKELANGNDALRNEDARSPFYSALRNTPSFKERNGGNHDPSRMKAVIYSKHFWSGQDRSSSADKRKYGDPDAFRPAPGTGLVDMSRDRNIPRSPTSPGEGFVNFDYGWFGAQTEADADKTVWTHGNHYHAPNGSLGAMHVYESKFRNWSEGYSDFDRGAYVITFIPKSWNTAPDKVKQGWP

[2] = target: T2, pro-transglutaminase of S. mobaraense, Phe-Arg-Ala-Pro deletion type and Arg insertion-variant of the pro-structure part
T2 chain: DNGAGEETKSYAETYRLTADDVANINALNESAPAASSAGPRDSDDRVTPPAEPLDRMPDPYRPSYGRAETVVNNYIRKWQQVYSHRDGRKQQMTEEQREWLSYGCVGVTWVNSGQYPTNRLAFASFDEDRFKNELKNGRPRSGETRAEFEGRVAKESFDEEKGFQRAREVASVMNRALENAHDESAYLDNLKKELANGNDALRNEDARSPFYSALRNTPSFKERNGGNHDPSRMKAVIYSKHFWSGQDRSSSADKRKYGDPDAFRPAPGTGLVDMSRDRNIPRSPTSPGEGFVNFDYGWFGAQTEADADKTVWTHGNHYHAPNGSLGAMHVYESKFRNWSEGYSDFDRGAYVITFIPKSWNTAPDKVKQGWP

[3] = target: T3, pro-transglutaminase of S. mobaraense, Ala-Pro deletion type of the pro-structure part
T3 chain: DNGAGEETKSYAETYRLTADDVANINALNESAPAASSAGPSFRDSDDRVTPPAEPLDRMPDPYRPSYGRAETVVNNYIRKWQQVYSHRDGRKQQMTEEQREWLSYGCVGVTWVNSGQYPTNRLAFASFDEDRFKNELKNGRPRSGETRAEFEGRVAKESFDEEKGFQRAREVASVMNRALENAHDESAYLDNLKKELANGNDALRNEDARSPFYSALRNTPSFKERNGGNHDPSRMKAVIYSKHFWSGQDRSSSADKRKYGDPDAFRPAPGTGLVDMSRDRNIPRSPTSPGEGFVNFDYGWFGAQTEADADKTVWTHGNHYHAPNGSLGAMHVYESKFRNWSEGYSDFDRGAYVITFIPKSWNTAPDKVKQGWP

[4] = target: T4, pro-transglutaminase of S. mobaraense, Asp deletion type of the pro-structure part
T4 chain: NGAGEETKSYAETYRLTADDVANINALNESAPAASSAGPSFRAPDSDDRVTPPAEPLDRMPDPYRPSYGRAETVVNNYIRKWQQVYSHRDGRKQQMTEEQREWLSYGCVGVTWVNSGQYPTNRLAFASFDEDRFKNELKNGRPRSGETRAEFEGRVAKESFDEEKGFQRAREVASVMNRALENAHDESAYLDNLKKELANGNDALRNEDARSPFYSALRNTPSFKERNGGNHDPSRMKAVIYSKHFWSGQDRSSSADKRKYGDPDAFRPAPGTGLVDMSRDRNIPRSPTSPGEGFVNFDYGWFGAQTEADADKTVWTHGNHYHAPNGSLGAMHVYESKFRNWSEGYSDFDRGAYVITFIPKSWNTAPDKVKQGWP

[5] = target: T5, pro-transglutaminase of S. mobaraense, Gly-Pro-Arg type modified variant of the pro-structure part
T5 chain: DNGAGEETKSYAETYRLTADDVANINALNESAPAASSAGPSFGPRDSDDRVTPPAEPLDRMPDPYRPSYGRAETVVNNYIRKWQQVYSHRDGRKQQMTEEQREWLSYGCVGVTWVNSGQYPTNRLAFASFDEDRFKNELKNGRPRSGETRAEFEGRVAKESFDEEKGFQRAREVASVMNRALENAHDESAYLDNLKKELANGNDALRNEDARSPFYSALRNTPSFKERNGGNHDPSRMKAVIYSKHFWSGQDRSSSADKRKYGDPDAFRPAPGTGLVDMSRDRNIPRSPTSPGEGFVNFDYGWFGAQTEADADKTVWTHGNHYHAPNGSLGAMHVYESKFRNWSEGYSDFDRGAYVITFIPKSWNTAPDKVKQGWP

[6] = target: T6, pro-transglutaminase of S. mobaraense, Phe-Arg-Ala-Pro deletion type of the pro-structure part
T6 chain: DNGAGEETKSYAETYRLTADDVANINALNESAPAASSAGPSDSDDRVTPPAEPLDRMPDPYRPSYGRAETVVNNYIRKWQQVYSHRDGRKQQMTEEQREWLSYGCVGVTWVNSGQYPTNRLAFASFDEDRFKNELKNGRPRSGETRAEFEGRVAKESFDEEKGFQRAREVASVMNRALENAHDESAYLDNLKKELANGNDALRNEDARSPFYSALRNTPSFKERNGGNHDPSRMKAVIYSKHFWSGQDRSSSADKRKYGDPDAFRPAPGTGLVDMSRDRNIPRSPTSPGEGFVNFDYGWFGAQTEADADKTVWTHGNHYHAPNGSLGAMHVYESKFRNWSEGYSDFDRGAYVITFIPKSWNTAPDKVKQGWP

[7] = target: T7, pro-transglutaminase derived from S. mobaraense IFO13819 (transglutaminase having the pro-structure part)
T7 chain: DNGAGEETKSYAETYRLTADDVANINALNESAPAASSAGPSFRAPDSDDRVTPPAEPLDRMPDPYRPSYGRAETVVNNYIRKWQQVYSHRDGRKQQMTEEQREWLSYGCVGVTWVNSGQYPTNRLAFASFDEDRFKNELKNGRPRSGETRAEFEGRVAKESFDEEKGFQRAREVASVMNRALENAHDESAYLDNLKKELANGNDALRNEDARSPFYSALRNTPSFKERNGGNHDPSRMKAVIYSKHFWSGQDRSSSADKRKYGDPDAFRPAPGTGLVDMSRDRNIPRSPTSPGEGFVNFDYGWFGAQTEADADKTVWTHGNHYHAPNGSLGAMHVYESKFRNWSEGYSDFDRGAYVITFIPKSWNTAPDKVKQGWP

[8] = target: T8, pro-transglutaminase of S. mobaraense, Phe-Arg-Ala-Pro deletion type and Lys insertion-variant of the pro-structure part
T8 chain: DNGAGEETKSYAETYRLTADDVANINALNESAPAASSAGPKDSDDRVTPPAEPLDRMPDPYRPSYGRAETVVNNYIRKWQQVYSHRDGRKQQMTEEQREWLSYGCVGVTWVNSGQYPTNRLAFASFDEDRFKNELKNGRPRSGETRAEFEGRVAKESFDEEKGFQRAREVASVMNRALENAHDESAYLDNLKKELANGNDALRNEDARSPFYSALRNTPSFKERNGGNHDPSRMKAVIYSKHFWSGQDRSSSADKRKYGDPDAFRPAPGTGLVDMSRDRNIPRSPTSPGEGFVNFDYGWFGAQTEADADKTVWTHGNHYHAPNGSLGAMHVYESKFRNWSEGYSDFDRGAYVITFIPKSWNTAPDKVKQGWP

[9] = target: T9, pro-transglutaminase of S. mobaraense, Gly-Pro-Lys type modified variant of the pro-structure part
T9 chain: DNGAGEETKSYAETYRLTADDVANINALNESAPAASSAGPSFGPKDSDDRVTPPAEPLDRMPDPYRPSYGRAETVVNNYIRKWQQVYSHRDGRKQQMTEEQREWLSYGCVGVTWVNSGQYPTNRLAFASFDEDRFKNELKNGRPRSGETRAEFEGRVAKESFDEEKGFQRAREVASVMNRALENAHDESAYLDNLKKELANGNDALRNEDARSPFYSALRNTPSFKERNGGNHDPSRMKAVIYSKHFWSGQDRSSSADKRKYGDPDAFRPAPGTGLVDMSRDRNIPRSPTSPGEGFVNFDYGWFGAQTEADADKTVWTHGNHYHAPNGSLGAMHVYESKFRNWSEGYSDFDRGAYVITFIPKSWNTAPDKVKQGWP

B1: SAMP45, serine protease produced by Streptomyces albogriseolus (protein)
chain: NGENSTAAGSSASATALKGKHRVTLITGDRVALDAKGRVVGLEPAEGREHIPVQIRRSDGHTLVVPADAARLVASGKLDQRLFDVTELNKAATRTAHRGGLKVIVGYRGAAKAAKADVRDAGTVRRTLTSLNADAVQTPQEAGAELWEAVTDGDRTASGVARVWLDGVRKASLDTSVGQIGTPKAWEAGYDGKGVKIAVLDTGVDATHPDLKGQVTASKNFTSAPTTGDVVGHGTHVASIAAGTGAQSKGTYKGVAPGAKILNGKVLDDAGFGDDSGILAGMEWAAAQGADIVNMSLGGMDTPETDPLEAAVDKLSAEKGILFAIAAGNEGPQSIGSPGSADSALTVGAVDDKDKLADFSSTGPRLGDGAVKPDLTAPGVDITAASAKGNDIAKEVGEKPAGYMTISGTSMATPHVAGAAALLKQQHPEWKYAELKGALTASTKDGKYTPFEQGSGRVQVDKAITQTVIAEPVSLSFGVQQWPHADDKPVTKKLTYRNLGTEDVTLKLTSTATGPKGKAAPAGFFTLGASTLTVPANGTASVDVTADTRLGGAVDGTYSAYVVATGAGQSVRTAAAVEREVESYNVTLKVLDRSGKATANYMAYLSGLTGLGKDRSYAPYEADGAVSVRVPKGGYVLDASVLVGADPETWRGADWLAQPKLDVTRNTTVTVDARKAKPVKVTVPGKAAKAQFASADYTIETNDSAVSYGWWLENYSGFRSAHLGPQITNGTLSQQWNTHFSNGAKAQYTAISGGKVKKLATGYTRAFKAKEFATVQVGMGAAASGKKGAVTAFGWLPGSSGASGFSQEQKLPSTRTLYLSTVNGVTWDLDFEQLGGVDNEGWPIYDAVYTIGVGKTYKGGKTYKETVNTAVFGPRLTSSYGVFRDGNSIYGVIPLFADGKGHAGSSEFSSAVTTLYRNGKKVGSNNDPLFGEEGFTVPSGDAAYRLTTSVKRSAKVAAASTRIDASWTFRSKKTSGEKQLPVSSARFAAVTGLDSKVAAGKKATFPVVVEGAAQGKNLKSLAVYVSYNGGKTWKKTTVTKGKITVKNPAKGKAISFRAKITDKKGNASLITIHNAYYGK
N-terminal amino acid sequence of the cleaved transglutaminase [1]: Phe-Arg-Ala-Pro was added to the naturally occurring mature transglutaminase in the transformant harboring pPKSPTG1 D or pPKSPTG1 DNGAGE
N-terminal amino acid sequence of the cleaved transglutaminase [2]: Ser-Ala-Gly-Pro-Lys (SEQ ID NO: 69) or Ser-Ala-Gly-Pro-Arg (SEQ ID NO: 70) was found to be added to the sequence of the naturally occurring mature transglutaminase for C. glutamicum ATCC13869 harboring pVSS1 and pPKSPTG13, or pVSS1 and pPKSPTG14
N-terminal amino acid sequence of the cleaved transglutaminase [3]: Phe-Arg was added to the N-terminal of the naturally occurring mature transglutaminase shown in SEQ ID NO: 5 in the transformant harboring pPKSPTG1 AP
N-terminal amino acid sequence of the cleaved transglutaminase [4]: Phe-Arg-Ala-Pro was added to the naturally occurring mature transglutaminase in the transformant harboring pPKSPTG1 D or pPKSPTG1 DNGAGE
N-terminal amino acid sequence of the cleaved transglutaminase [5]: the sequence identical to that of the naturally occurring mature transglutaminase was confirmed for C. glutamicum ATCC13869 harboring pVSS1 and pPKSPTG11, or pVSS1 and pPKSPTG12, which had Asp as the N-terminal amino acid residue
N-terminal amino acid sequence of the cleaved transglutaminase [6]: Ser-Ala-Gly-Pro-Ser was added to the N-terminal of the naturally occurring mature transglutaminase in the transformant harboring pPKSPTG1 FRAP
N-terminal amino acid sequence of the cleaved transglutaminase [7]: it had the structure in which the 4 C-terminal amino acids of Phe-Arg-Ala-Pro from the pro-structure part was added to the naturally occurring mature transglutaminase
N-terminal amino acid sequence of the cleaved transglutaminase [8]: Ser-Ala-Gly-Pro-Lys (SEQ ID NO: 69) or Ser-Ala-Gly-Pro-Arg (SEQ ID NO: 70) was found to be added to the sequence of the naturally occurring mature transglutaminase for C. glutamicum ATCC13869 harboring pVSS1 and pPKSPTG13, or pVSS1 and pPKSPTG14
N-terminal amino acid sequence of the cleaved transglutaminase [9]: the sequence identical to that of the naturally occurring mature transglutaminase was confirmed for C. glutamicum ATCC13869 harboring pVSS1 and pPKSPTG11, or pVSS1 and pPKSPTG12, which had Asp as the N-terminal amino acid residue
